The RNAGym collection of RNA variant scans (doi:10.1073/pnas.2313332121)
Fewer inactive variants are shown than the library holds.

B1: TPR 5TU (parent)
chain: GGAUCUUCUCGAUCUAACAAAAAAGACAAAUCUGCCACAAAGCUUGAGAGCAUCUUCGGAUGCAGAGGCGGCAGCCUUCGGUGGCGCGAUAGCGCCAACGUUCUCAACUAUGACACGCAAAACGCGUGCUCCGUUGAAUGGAGUUUAUCAUG

Variants of: B1
Assay: polymerase ribozyme fitness, log enrichment relative to wild type (log ratio); higher = more active; in vitro selection for triplet polymerase activity
Method in brief: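 One round of in vitro selection, in triplicate, was applied to PCR-built, transcribed mutant libraries of each subunit of a heterodimeric triplet polymerase ribozyme. The steps were annealing with a biotinylated primer, partner subunit and triplets, incubation frozen at −7 °C, gel excision of extended constructs, streptavidin-bead capture and RT-PCR. Fitness is the logarithm, base 2, of genotype enrichment over wild-type enrichment from inverse-variance-weighted replicate averages of Illumina-sequenced inputs and outputs, keeping genotypes with ≥10 input reads and ≥1 read per output.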
In the case of GGAUCUUUUCGAUCUAACAAAAAAGACAAAUCUGCCACAUAGCUUGAGAGCAUCUUCGGAUGCAGAGGCGGCAGCCUUCGGUGGCGCGAUAGCGCCAACGUUCUCAACUAUGACACGCAAAACGCGUGCUCCGUUGAAUGGAGUUUAUCAUG [C8U A40U], the “polymerase ribozyme fitness (log ratio)” value is reported as -3.42. With GGAUCUUUUCGAUCUAACGAAAAAGACAAAUCUGCCACAAAGCUUGAGAGCAUCUUCGGAUGCAGAGGCGGCAGCCUUUGGUGGGGCGAUAGCGCCAACGUUCUCAACUAUGACACGCAAAACGCGUGCUCCGUUGAAUGGAGUUUAUCAUG [C8U A19G C79U C85G] the “polymerase ribozyme fitness (log ratio)” value was at most -4.2. For GGAUCUUUUCGAUCUAACAAAAAAGACAAAUCUGCCACAAAGCUUGAGAGCAUCUUCGGAUGCAGAGGCGGCAGCCUUCGGUGGCGCGAUAGCGCCAACGUUCUCAACUAUGACACGCAAAACGCGUGCUCCGUUGAAUGGCGUUUAUCAUG [C8U A142C], the “polymerase ribozyme fitness (log ratio)” value was -3.25. In the case of GGAUCUUUUCGAUCUAACAAAAAAGACAAAUAUGCCACAAAGCUUGAGAGCAUCUUCCGAUGCAGAGGCGGCAGCCUUCGGUGGCGCGAUAGGUUCAACGUUCUCAACUAUGACACUCAAAACGCGUGCUCCGUUGAUUGGAGUUUAUCAUG [C8U C32A G58C C93G G94U C95U G117U A138U], the “polymerase ribozyme fitness (log ratio)” value is reported as at most -4.2. For GGAUCUUUUCGAUCUAACAAAAAAGACAAAUCUGCCACAAAGCUUGAGAGCAUCUUCGGAUGCAGAGGCGGCAGCCUUCGGUGACGCGAUAGCGCCAACGUUCUCAACUAUGACACGCAAAACGCGUGCUCCGUUGAAUGGAGUUUAUCAUG [C8U G84A], the “polymerase ribozyme fitness (log ratio)” value was -2.87. In the case of GGAUCUUUUUGAUCUAACAAAAAAGACAAAUGUGGCACAAAGCUUGAGAGCAUCUUCGGAUGCAGAGGCGGCAGCCUUCGGUGGCGCGAUAGCGUCAACGUUCUCAACUAUGACACGCAAAACGCGUGCUCCGUUAAAUGGAGUUUAUCAUG [C8U C10U C32G C35G C95U G136A], the “polymerase ribozyme fitness (log ratio)” value is reported as at most -4.2. For GGAUCUUUUCGAUCUAACACAAAAGACAAAUCUGCCACAAAGCUUGAGAACAUCUUCGGAUGCAGAGGCGGCAGCCUUCGGGGGCGCGAUAGUGUCAACGUUCUCAACUAUGACACGCAAAACGCGUGCUCCGUUGAAUGGGGUUUAUCAUG [C8U A20C G50A U82G C93U C95U A142G], the “polymerase ribozyme fitness (log ratio)” value was at most -4.2. For GGAUCUUUUCGAUCUAACAAAAAAGACAAAUCUGCCACAAAGCUUGAGAGCAUCUUCGGAUGCAGAGGCGGCAGCCUUCGGUGGCGGGAUAGCGCCAACCUUCUCAACUAUGACACGCAAAACGCGUGCUCCGUUGAACGGAGUUUAUGAUG [C8U C87G G100C U139C C149G], the “polymerase ribozyme fitness (log ratio)” value was at most -4.2. For GGAUCUUUUCGAUCUAACAAUAAAGACCAAUCUGCCACAAAGCUUGAGAGCUUCUUCGGAUGCAGAGGCGGCAGCCUUCGGUGGCGCGAUAGCUGCCACGUUCUCAACUAUGACACGCAAAUCGCUUGCUCCGUUAAAUGGAGUUUAUCAUG [C8U A21U A28C A52U G94U C95G A97C A122U G126U G136A], the “polymerase ribozyme fitness (log ratio)” value was at most -4.2. With GGAUCUUUUCGAUCUAGCAAAAAAGACAAAUCUGCCACGAAGCUUGAGAGCAUCUUCGGAUGCAGAGGCGGCAGCCUUCGGUGUCGCGAUAGCGCCAACGUUCUCAACUAUGACAAGGAAAACGCGUGCUCCGUUGAACGGAGUUUAUCAUG [C8U A17G A39G G84U C116A C118G U139C] the “polymerase ribozyme fitness (log ratio)” value was at most -4.2. With GGAUCUUUUCGAUCUAACAAAUAAGACAAAUCUGCCACAUAGCUUGCGAGCAUCUUCGGAUGCAGAGGCGGCAGCCUUCGGUGGCGCGAUAGCGCCAACGUUCUCAACUAUGACACGCAAAACGCGUGCUCCGUUGAAUGGAGUUUAUCAUG [C8U A22U A40U A47C] the “polymerase ribozyme fitness (log ratio)” value was at most -4.2. With GGAUCUUUUCGAUCUAACAAAAAAGACAAAUCUGCCAUAAAGCUUGAGAGCAUCUUCGGAUGCAGAGGAGGCAGCCUUCGGUAGCGCGAUCGCGCCAACGUUCUCAACUAUGACACGUAAAACGCGUGCUCCGUUGAAUGGAGUUUAUCAUG [C8U C38U C69A G83A A91C C118U] the “polymerase ribozyme fitness (log ratio)” value was at most -4.2. With GGAUCUUUUCGAUCUAACAGAAACGACAAAUCUGCCACACAGCUUGAGACCAUCUUCGGAUGCAGAGGCGCCAGCCUUCGGUGGCGCGCUAGUGCCAACGUUCUCAACUAUGACACGCAAAACGCGUGCUCCGUUGAAUGGAGUUUAUCAUG [C8U A20G A24C A40C G50C G71C A89C C93U] the “polymerase ribozyme fitness (log ratio)” value was at most -4.2. With GGAUCUUGUCGAUCUAACAAAAAAGACAAAUCUGCCACAAAGCUUGAGAGCAUCUGCGGAUGCAGAGGCGGCAGCCUUCGGUGGCGCGAUGGCGCCAACGUUCUCAACUAUGACACGCAAAACGCGUGCUCCGUUGAAUGGAGUUUAUCAUG [C8G U56G A91G] the “polymerase ribozyme fitness (log ratio)” value was at most -4.2. With GGAUCUUGUCGAUCUAACAAAAAAGACAAACGUGCCACAAAGCUUGAAAGCAUCUUCGGAUGCAGAGGCGGCAGCCUUCGGUGGCGCGAUUGCGCCAACGUUCUCAACUAUGACACGCAAACCGCGUGCUCCAUUGAAUGGAGUUUAUCAUG [C8G U31C C32G G48A A91U A122C G133A] the “polymerase ribozyme fitness (log ratio)” value was at most -4.2. In the case of GGAUCUUUUCGAUGUAACAAAAAAGACAAAUAUGCGACAAAGCUUGAGAGCAUCUUCGGAUGCAGAGGCGGCAGCCUUCGGUAGCGCGAUAGCGCCAACGUUCUCAACUAUGACACCCAAAACGCGUGCUCCGUUGAAUGGAGUUUAUCAUG [C8U C14G C32A C36G G83A G117C], the “polymerase ribozyme fitness (log ratio)” value is reported as at most -4.2. In the case of GGAUCUUGUCGAUCUAACAAAAAAGACAAAUCUGCCACAAAGCUUGAGAGCAUCUUCGGAUGCAGAGGCGGCAGCCUACGGUGGCGCGAUAGCGCCAACGUUCUCAACUAUGACACGCAAAACGCGUGCUCCGUUGAAUGGAGUUUAUCAUG [C8G U78A], the “polymerase ribozyme fitness (log ratio)” value is reported as at most -4.2. With GGAUCUUUUCGAUCUAACAAAAAAGACAAAUCUGCCACAAAGCUUGAGAGAAUCUUCGGUUGCAGAGGCGGCAGCCUUCGGUGGCGUGAUAGCGCCAACGUUCUCAACUAUGACACGCAAAACGCGUGCUCCGUUGAAUGGAGUUUAUCAUG [C8U C51A A60U C87U] the “polymerase ribozyme fitness (log ratio)” value was at most -4.2. For GGAUCUUUUCGAUCUAACAAAAAAGACAAAUCUGCCACAAAGCUUGAGAGCAUCUUCGGAUGUAGAGGCGGUAGCCUUCGGUGGCGCGAUAGCGCCAACGUUCUCAACUAUGACACGCAAAAUGCUUGCUCCGUUGAAUGGAGUUUAUCAUG [C8U C63U C72U C123U G126U], the “polymerase ribozyme fitness (log ratio)” value was at most -4.2.
